Reference: patent US20250320478

What was measured:
Test in all cases: cell_activity
[1] = tested on: ZFP8 (Pcsk9 ZFP, KRAB/DNMT3 effector fusions) (synthetic construct); details: upper end of 1.5-17 range for bi-partite ZFP8 ETRs in Hepa 1-6 Pcsk9tdTomato; tri-partite 2-8 fold; binding inferred from silencing
[2] = tested on: ZFP3:G:D3A (synthetic construct); details: triple combination with ZFP8:G:K and ZFP6:G:hD3L; not tested alone
[3] = tested on: ZFP6:G:hD3L (synthetic construct); details: triple combination with ZFP8:G:K and ZFP3:G:D3A; not tested alone
ZFP6:G:hD3L (synthetic construct), sequence (chain, as listed by the source): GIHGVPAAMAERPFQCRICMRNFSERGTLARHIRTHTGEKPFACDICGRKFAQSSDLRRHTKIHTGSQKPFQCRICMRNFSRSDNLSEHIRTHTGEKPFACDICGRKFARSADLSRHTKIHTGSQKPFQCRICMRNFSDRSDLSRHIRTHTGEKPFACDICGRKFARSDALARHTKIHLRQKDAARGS

ZFP3:G:D3A (synthetic construct), sequence (chain, as listed by the source): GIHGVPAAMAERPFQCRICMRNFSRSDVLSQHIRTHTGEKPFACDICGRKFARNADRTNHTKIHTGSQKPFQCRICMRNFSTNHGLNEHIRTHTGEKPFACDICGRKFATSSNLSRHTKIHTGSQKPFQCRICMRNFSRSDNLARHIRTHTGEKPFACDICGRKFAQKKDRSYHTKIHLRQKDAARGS

Pcsk9 promoter CpG island, ZFP8 target site
activity (fold silencing vs ZFPoff) [1]: 17

Pcsk9 promoter CpG island, ZFP3 target site
activity (fold silencing vs ZFPoff) [2]: 15

Pcsk9 promoter CpG island, ZFP6 target site
activity (fold silencing vs ZFPoff) [3]: 15
